Patent US20220119450A1 (UNIVERSITY OF TARTU, published 2022)
No end group written: not given here. FAM = 5(6)-carboxyfluorescein; Ahx = NCCCCCC(=O)O

T1: recombinant His-tagged tenascin-C C domain (TNC-C)
T1 construct: 112 amino acids, expressed in E. coli from pET28a+ with N-terminal His-tag
T1 chain: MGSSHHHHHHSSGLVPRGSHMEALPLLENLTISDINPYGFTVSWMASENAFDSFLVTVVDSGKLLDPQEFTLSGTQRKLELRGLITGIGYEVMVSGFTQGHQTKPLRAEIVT

B1: synthetic FAM-labeled PL1 peptide (peptide)
peptide: {FAM-Ahx}-PPRRGLIKLKTS-OH
notes: Immobilized on ELISA plate and probed with His-tagged recombinant proteins; also called FAM-PL1
B2: PL5 peptide displayed on T7 phage (PPRRGLIKLKTSSNTKENSVVASLRP) (peptide)
peptide: PPRRGLIKLKTSSNTKENSVVASLRP
modifications: not fully specified (N-terminus); also: displayed on T7 phage capsid protein
notes: 26-aa peptide at the C-terminus of the T7 major capsid protein, arisen by a frameshift; also called PL5 phage
B3: TNC-C-selected peptide phage clone 46, GRLTRVR (peptide)
peptide: GRLTRVR
B4: TNC-C-selected peptide phage clone 4, CSRRGILRAKPAAALE (peptide)
peptide: CSRRGILRAKPAAALE
B5: TNC-C-selected peptide phage clone 1, AGVGRLRRAKLAAALE (peptide)
peptide: AGVGRLRRAKLAAALE
B6: TNC-C-selected peptide phage clone 5, AGRGRLVRAKLAAALE (peptide)
peptide: AGRGRLVRAKLAAALE
B7: TNC-C-selected peptide phage clone 2, CRGVLRRAKLAAALE (peptide)
peptide: CRGVLRRAKLAAALE
B8: TNC-C-selected peptide phage clone 45, RGRLVRA (peptide)
peptide: RGRLVRA
B9: TNC-C-selected peptide phage clone 44 (Seq ID No. 37) (peptide)
peptide: RGRLRRVE
B10: TNC-C-selected peptide phage clone 30, VGRVRFSRKLAAALE (peptide)
peptide: VGRVRFSRKLAAALE
B11: TNC-C-selected peptide phage clone 35, RRLVRVA (peptide)
peptide: RRLVRVA
B12: TNC-C-selected peptide phage clone 36, CQRMGVVGAKLAAALE (peptide)
peptide: CQRMGVVGAKLAAALE
B13: Fn-EDB-selected peptide phage clone 33, RESRRGRVKLAAALE (peptide)
peptide: RESRRGRVKLAAALE
B14: Fn-EDB-selected peptide phage clone 10, GTRRRSRINLAAALE (peptide)
peptide: GTRRRSRINLAAALE
B15: Fn-EDB-selected peptide phage clone 17, KVKKRGA (peptide)
peptide: KVKKRGA
B16: Fn-EDB-selected peptide phage clone 4, GRRGRVIKLKTSEPPQ (peptide)
peptide: GRRGRVIKLKTSEPPQ
B17: Fn-EDB-selected peptide phage clone 2, TKRKGKG (peptide)
peptide: TKRKGKG
B18: Fn-EDB-selected peptide phage clone 24, VHERTRI (peptide)
peptide: VHERTRI
B19: PL2 peptide displayed on T7 phage (TSKQNSR) (peptide)
peptide: TSKQNSR
notes: also called phage PL2 peptide
B20: Fn-EDB-selected peptide phage clone 3, GLGGRRIKLKTS (peptide)
peptide: GLGGRRIKLKTS
B21: PL3-functionalized silver nanoparticles (biotinylated PL3 peptide on NeutrAvidin-coated AgNPs) (peptide)
peptide: AGRGRLVR
modifications: not fully specified (N-terminus); also: biotinylated, site not given here, bound to NeutrAvidin on dye-labeled PEGylated silver nanoparticles
notes: Multivalent display on nanoparticles; also called PL3-AgNPs; AgNP-PL3

Biological target: T1, recombinant His-tagged tenascin-C C …
Assay: ELISA: immobilized FAM-PL1 probed with His-tagged protein, anti-His-tag antibody, HRP
Description: (§1) The FAM-labeled peptides were coated on ELISA plates (Nunc Maxisorp, Thermo Fisher Scientific Inc., MA, USA), blocked with PBS containing 1% BSA, and incubated with recombinant proteins at 2 μg/well in PBS for 6 h. The protein was detected using an anti-His-tag antibody, followed by horseradish peroxidase-conjugated secondary antibody, chromogenic reaction, and measurement of absorbance at 450 nm with a microplate reader (Tecan Austria GmbH, Grödig, Austria).
(§2) Immobilized FAM-PL1 was probed with recombinant His-tagged EDB and TNC-C (or control BSA), followed by sequential incubation with rabbit anti-His-tag primary antibody, secondary goat anti-rabbit HRP antibody and a chromogenic peroxidase reaction.

B1: binds.

The binders below were run against T2, recombinant His-tagged fibronectin extra domain B (FN-EDB) in the same assay as above.
T2 construct: 112 amino acids, expressed in E. coli from pET28a+ with N-terminal His-tag; also called fibronectin EDB-domain
Description: as §1, §2

B1: binds.

Biological target: T1, recombinant His-tagged tenascin-C C …
Assay: binding specificity, T7 peptide phage
Description: (§3) To identify bispecific peptides that interact with both TNC-C and FN-EDB, cross screens were performed on both targets. During the first round of selection, microtiter plates coated with 20 μg/ml recombinant purified TNC-C were blocked with PBS containing 1% bovine serum albumin (BSA), followed by incubation with 5×10⁸ pfu of phages in PBS at 4° C. overnight, by washes to remove background, and by phage rescue and amplification in BLT5403 strain of E. coli (Novagen, EMD Biosciences, MA, USA) (Teesalu et al., Methods Enzymol. 503:35-56 (2012)). The following rounds of biopanning were carried on Ni-NTA Magnetic Agarose Beads (QIAGEN, Hilden, Germany) coated with hexahistidine-tagged FN-EDB (3 μg/μl beads) at room temperature. After 5 rounds of selection, a set of random clones was sequenced, and individual peptide-phage clones and control (G7 peptide-displaying or insertless) phages were incubated with FN-EDB and TNC-C-coated magnetic beads. RPARPAR phage (SEQ ID NO:5) and His-tagged NRP-1 b1b2 domain were used as positive control (Teesalu et al., Proc. Natl. Acad. Sci. U.S.A 106:16157-62 (2009)). To address the specificity of the peptide phage binding to the FN-EDB and TNC-C, the protein-coated beads were pre-incubated with 20 μg/ml blocking rabbit polyclonal antibodies.
as §2

B2: binds.

Each binder was assayed against T2, recombinant His-tagged fibronectin … (assay: binding specificity, T7 peptide phage).
Description: as §3, §2

B2: binds.

Biological target: T1, recombinant His-tagged tenascin-C C …
Assay: T7 peptide phage binding to recombinant TNC-C, fold over control heptaglycine phage
Description: Throughout our screens, the phage recovered during a round of selection was amplified using plate amplification protocol (Teesalu et al., 2012). The 1st and 4th round of biopanning were performed on TNC-C immobilized on Costar 96-Well ELISA plate (#3590, Corning Life Sciences, Tewksbury, Mass., USA). Briefly, the multiwell plate was coated with 20 μg/ml recombinant TNC-C in 100 μl of PBS overnight at 4° C., followed by blocking with 1% bovine serum albumin (BSA) in PBS overnight at 4° C. The phage library solution (5×10⁸ pfu in 100 μl of PBS-BSA) were incubated overnight at 4° C., followed by 6 washes with PBS+1% BSA+0.1% Tween 20 to remove non-specifically bound background phages, and by phage rescue and amplification in E. coli strain BLT5403 (Novagen, EMD Biosciences, MA, USA) (Lingasamy, P. et al., Biomaterials 119373. 2019). The subsequent rounds of selection were performed on Ni-NTA Magnetic Agarose Beads (QIAGEN, Hilden, Germany) coated with His-6X tagged TNC-C (30 μg/10 μl beads) at room temperature for 1 hour in 400 μl of PBS. The TNC-C immobilized beads were washed three times with PBS+1% BSA+0.1% NP40, followed by incubation of previous round phage (5×10⁸ pfu in 100 μl of PBS+1% BSA+0.1% NP40) to TNC-C coated beads for 1 hour at room temperature. The unbound/weakly bound (background) phages were removed by rinsing six times with PBS+1% BSA+0.1% NP40, and the bound phages were eluted with 1 ml of PBS+500 mM Imidazole+0.1% NP40.
The recovered phage was tittered and amplified for a subsequent round of selection. […] RPARPAR phage on NRP-1-coated beads was used as a positive control (Teesalu et al., 2009). Phage clones displaying heptaglycine peptide (GGGGGGG, G7 (SEQ ID NO:20)) or insert less phage clones were used as negative controls.

Compared with B3, B4 is higher in “TNC-C binding (fold G7 control phage)” value: 115 fold for the first, 4890 fold for the second.

Going from B5 to B6, the “TNC-C binding (fold G7 control phage)” value rises from 3260 fold to 5780 fold.

Compared with B7, B8 is lower in “TNC-C binding (fold G7 control phage)” value: 5960 fold for the first, 737 fold for the second.

Going from B9 to B10, the “TNC-C binding (fold G7 control phage)” value rises from 886 fold to 3700 fold.

First: B11
Second: B12
The “TNC-C binding (fold G7 control phage)” value of the first is lower: 1220 fold for the first, 3930 fold for the second.

Each binder was assayed against T2, recombinant His-tagged fibronectin … (assay: T7 peptide phage binding to recombinant Fn-EDB, fold over heptaglycine (G7) control phage).
Description: The first panning round were performed on Fn-EDB immobilized on Costar 96-Well enzyme-linked immunosorbent assay (ELISA) plate (#3590, Corning Life Sciences, Tewksbury, Mass., USA). The plate was coated with 20 μg/ml recombinant Fn-EDB in 100 μl of PBS overnight at 4° C., followed by blocking with 1% bovine serum albumin (BSA) in PBS overnight at 4° C. The phage library solution (5×10⁸ pfu in 100 μl of PBS-BSA) were incubated overnight at 4° C., followed by 6 wash with PBS+BSA+0.1% Tween 20 to remove non-specifically bound background phages, and by phage rescue and amplification in E. coli strain BLT5403 (Novagen, EMD Biosciences, MA, USA) (Teesalu et al., 2012). The consequent rounds of selection were performed on Ni-NTA Magnetic Agarose Beads (QIAGEN, Hilden, Germany) coated with His-6X tagged Fn-EDB (30 μg/10 μl beads) at room temperature for 1 hour in 400 μl of PBS. The Fn-EDB immobilized beads were washed three times with PBS+BSA+0.1% NP40, followed by incubation of previous round phage (5×10⁸ pfu in 100 μl of PBS+BSA+0.1% NP40) for 1 hour at room temperature. The unbound/weakly bound phage removed by rinsing six times with PBS+BSA+0.1% NP40, binding phage were eluted with 1 ml of PBS+500 mM Imidazole+0.1% NP40. The recovered phage was tittered and amplified for a subsequent round of selection.
For cell-free binding studies using individually amplified phage clones; phage was incubated with Fn-EDB coated magnetic beads as described above. RPARPAR phage on NRP-1-coated beads was used as a positive control (Teesalu et al., 2009), Nucleolin (NCL) and Tenascin C—C domain (TNC-C) were used as negative control. Phage clones displaying heptaglycine peptide (GGGGGGG, G7 (SEQ ID NO:20)) or insert less phage clones were used as negative controls.

Compared with B13, B14 is higher in “Fold over G7” value: 209 fold for the first, 1560 fold for the second.

First: B15
Second: B16
The “Fold over G7” value of the first is lower: 44 fold for the first, 1180 fold for the second.

First: B17
Second: B18
The “Fold over G7” value of the first is higher: 58 fold for the first, 1 fold for the second.

Going from B19 to B20, the “Fold over G7” value rises from 89 fold to 2060 fold.

Each binder was assayed against T3, NRP-1 on NRP-1-positive cells (U87-MG glioma, PPC1 prostate carcinoma; U87-MG xenograft tumors) (UniProt O14786 22-923, limits assumed) (assay: nanoparticle binding and uptake on cultured cells, confocal imaging).
T3 construct: whole, on cells; in xenografts mouse NRP-1 is also present
T3 sequence (O14786 22-923 limits assumed): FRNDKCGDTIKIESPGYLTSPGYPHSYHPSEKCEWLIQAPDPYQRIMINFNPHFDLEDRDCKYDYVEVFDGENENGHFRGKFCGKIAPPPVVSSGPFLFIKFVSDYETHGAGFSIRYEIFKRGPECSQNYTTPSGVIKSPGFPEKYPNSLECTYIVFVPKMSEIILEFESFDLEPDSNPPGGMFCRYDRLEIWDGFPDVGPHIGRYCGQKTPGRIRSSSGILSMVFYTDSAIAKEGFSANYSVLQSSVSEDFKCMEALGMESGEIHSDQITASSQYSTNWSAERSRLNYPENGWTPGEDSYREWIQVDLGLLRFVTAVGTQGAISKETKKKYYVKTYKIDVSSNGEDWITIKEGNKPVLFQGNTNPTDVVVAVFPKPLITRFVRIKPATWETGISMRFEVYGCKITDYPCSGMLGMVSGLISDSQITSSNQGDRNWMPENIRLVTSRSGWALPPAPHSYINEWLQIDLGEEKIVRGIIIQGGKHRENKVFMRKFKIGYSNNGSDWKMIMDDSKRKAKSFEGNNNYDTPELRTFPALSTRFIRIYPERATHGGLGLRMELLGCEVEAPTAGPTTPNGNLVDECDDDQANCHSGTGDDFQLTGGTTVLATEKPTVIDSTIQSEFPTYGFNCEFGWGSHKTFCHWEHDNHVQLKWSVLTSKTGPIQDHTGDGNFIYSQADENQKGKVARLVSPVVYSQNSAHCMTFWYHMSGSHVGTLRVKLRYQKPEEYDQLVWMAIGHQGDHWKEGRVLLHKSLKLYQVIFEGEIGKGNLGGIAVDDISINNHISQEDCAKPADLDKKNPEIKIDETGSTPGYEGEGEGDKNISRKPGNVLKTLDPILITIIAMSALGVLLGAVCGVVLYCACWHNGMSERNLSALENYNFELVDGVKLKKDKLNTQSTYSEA
Description: U87-MG, PPC1, and M21 cells cultured on glass coverslips were incubated with CF555-labeled AgNPs at 37° C. for 1 hour, followed by washing with medium to remove background AgNPs. Etching solution freshly diluted from 0.2 M stock solutions of Na₂S₂O₃ and K₃Fe(CN)₆ to 10 mM working concentration in PBS was applied to cells for 3 minutes, followed by PBS washes. The cells on coverslips were fixed with −20° C. methanol for 1 minute. The cell membrane was visualized by staining with Alexa Fluor 488-labeled wheat germ agglutinin (WGA) at 1:1000 at RT for 1 h. Nuclei were stained with 4′,6-diamidino-2-phenylindole (DAPI, Molecular Probes) at 1 μg/mL. Fluoromount-G (Electron Microscopy Sciences) medium was used to mount the coverslips on microscope slides for confocal imaging.
Many cultured tumor cell lines overexpress NRP-1 and internalize peptides with active CendR motif. The uptake of CF555-labeled PL3-AgNPs in NRP-1-positive U87-MG glioma and PPC1 prostate carcinoma cells, and in NRP-1-negative M21 melanoma cells was investigated. The dye-labeled AgNP cores are well suited for fluorescence imaging as the AgNP increases the brightness of the surface-bound dye by about an order of magnitude by plasmonic enhancement. The AgNPs labeled with CF647 dye were coated with neutravidin (NA) and PEGylated, creating a stable colloid ready for coating with biotinylated peptides. […]

B21: binds.
